# T1: ENaC (Homo sapiens, UniProt P37088+P51168+P51170)
# T1 construct: endogenous in cells; host or cells: primary human bronchial epithelial cultures
# T1 sequence (P37088 1-669): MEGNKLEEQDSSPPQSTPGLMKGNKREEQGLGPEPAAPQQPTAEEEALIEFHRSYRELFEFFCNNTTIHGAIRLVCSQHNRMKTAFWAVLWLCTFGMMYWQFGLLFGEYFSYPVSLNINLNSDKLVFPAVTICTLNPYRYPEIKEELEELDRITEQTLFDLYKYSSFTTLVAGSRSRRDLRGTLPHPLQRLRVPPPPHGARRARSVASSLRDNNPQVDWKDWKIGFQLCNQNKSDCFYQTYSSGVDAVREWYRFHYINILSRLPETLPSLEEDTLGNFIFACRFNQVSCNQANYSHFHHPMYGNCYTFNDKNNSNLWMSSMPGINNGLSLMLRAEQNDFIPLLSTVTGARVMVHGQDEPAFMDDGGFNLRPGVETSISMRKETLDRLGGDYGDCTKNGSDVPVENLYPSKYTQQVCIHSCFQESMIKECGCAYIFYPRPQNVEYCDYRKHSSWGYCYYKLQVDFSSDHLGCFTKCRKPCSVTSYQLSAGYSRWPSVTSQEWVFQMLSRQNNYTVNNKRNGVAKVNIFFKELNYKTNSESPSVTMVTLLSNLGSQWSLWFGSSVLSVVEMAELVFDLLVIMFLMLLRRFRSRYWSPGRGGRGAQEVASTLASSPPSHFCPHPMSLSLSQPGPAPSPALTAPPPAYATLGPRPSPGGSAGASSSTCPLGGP
# T1 sequence (P51168 1-640): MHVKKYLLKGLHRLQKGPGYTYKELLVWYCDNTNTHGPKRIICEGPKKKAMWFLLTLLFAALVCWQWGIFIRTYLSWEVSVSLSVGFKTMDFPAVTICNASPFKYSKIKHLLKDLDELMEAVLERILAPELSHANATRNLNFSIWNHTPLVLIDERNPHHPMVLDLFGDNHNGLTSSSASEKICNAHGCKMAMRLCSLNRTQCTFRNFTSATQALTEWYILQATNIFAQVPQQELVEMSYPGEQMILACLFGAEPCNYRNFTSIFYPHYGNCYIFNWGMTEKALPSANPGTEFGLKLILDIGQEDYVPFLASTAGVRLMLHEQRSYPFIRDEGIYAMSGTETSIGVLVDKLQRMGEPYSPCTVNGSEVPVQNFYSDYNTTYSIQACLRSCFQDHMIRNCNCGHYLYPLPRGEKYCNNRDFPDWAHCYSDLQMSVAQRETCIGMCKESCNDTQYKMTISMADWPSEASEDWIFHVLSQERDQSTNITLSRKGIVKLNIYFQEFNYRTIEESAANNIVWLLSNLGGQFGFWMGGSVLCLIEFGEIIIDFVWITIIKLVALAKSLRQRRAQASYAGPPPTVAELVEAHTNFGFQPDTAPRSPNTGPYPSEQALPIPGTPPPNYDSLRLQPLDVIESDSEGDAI
# T1 sequence (P51170 1-649): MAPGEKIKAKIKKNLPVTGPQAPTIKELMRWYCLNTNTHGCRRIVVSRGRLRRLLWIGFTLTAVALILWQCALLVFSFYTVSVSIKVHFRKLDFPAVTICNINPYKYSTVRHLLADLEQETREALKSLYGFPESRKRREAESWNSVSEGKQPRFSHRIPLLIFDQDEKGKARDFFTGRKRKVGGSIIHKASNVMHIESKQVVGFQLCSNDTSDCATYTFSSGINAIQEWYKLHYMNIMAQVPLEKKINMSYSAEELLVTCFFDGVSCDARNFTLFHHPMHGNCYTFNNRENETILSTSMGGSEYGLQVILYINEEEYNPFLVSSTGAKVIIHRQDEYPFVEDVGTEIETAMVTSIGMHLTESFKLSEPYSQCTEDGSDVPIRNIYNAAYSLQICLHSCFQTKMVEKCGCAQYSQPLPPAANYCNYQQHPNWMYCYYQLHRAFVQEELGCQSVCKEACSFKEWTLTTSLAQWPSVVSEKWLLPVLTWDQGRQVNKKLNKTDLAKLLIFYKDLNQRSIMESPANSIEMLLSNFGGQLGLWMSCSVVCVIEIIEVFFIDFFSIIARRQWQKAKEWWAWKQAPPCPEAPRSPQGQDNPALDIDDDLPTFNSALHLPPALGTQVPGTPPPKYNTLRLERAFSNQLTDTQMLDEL
# B1: SPLUNC1: human SPLUNC1, 256 amino acid secreted PLUNC protein (SEQ ID NO:1); rSPLUNC1 = V5/6His-tagged protein purified from HEK293 media (protein, listed as Homo sapiens)
# chain: MFQTGGLIVFYGLLAQTMAQFGGLPVPLDQTLPLNVNPALPLSPTGLAGSLTNALSNGLLSGGLLGILENLPLLDILKPGGGTSGGLLGGLLGKVTSVIPGLNNIIDIKVTDPQLLELGLVQSPDGHRLYVTIPLGIKLQVNTPLVGASLLRLAVKLDITAEILAVRDKQERIHLVLGDCTHSPGSLQISLLDGLGPLPIQGLLDSLTGILNKVLPELVQGNVCPLVNEVLRGLDITLVHDIVNMLIHGLQFVIKV
# modifications: V5/6His tag
# notes: rSPLUNC1 = V5/6His-tagged protein purified from HEK293 media
# Molecular target: T1, ENaC
# Assay: Transepithelial voltage under thin film conditions in human bronchial epithelial cultures (microelectrode)
# Assay type: cell-based
# From the text: Tissue procurement and cell culture: Cells were harvested by enzymatic digestion from human bronchial tissue as previously described under a protocol approved by the UNC School of Medicine IRB (Tarran et al., J. Gen. Physiol. 127:591 (2006)). Human excess donor lungs and excised recipient lungs were obtained at the time of lung transplantation from portions of main stem or […] bronchi and cells were harvested by enzymatic digestion. All preparations were maintained at an air-liquid interface in a modified bronchial epithelial medium and used 2-5 weeks after seeding on 12 mm T-Clear inserts (Corning Costar) coated with human placental type VI collagen (Sigma). Phosphate buffered saline (PBS) was used for washing human bronchial epithelial culture mucosal surfaces.
# Microelectrode studies. A single-barreled potential difference-sensing electrode was placed in the airway surface liquid by micromanipulator and used in conjunction with a macroelectrode in the serosal solution to measure transepithelial voltage using a voltmeter (World Precision Instruments). […] Transepithelial resistance was routinely measured using the EVOM system (WPI) as previously described (Tarran et al., J. Gen. Physiol. 127:591 (2006)).
molecule,measurement,setting,value
trypsin [reference compound],transepithelial voltage after mucosal trypsin,"SPLUNC1-exposed group, trypsin for 30 min after 1 h rSPLUNC1 exposure",significantly raised the transepithelial voltage
same,transepithelial voltage after mucosal trypsin,"control cultures, trypsin for 30 min",without effect
B1,regulation of the transepithelial voltage,"SPLUNC1 knockdown cultures, 50 ng/ml rSPLUNC1 added to airway surface liquid",restored
same,transepithelial voltage,"cultures not pre-washed, airway surface liquid accumulated for 24 h",without further effect
same,onset of inhibition,"human bronchial epithelial cultures, FIG. 2C, 2D",30 to 60 min
same,rate of inhibition of the transepithelial voltage,"rSPLUNC1 vs aprotinin addition, effects not additive",identical rates
same,"transepithelial voltage, addition to amiloride-treated cultures","same amiloride-treated cultures, n=12",without further effect
same,transepithelial voltage,"washed cultures, 20 μl Ringer containing 50 ng/ml rSPLUNC1",significantly reduced the transepithelial voltage
